B1: CE115HA000 Q105E one-arm antibody (antibody, human IgG1, kappa, L234A L235A, N297A, name in Kabat numbering)
heavy: QVQLVESGGGVVQPGRSLRLSCAASGFTFSNAWMHWVRQAPGKGLEWVAQIKAKSNNYATYYAESVKGRFTISRDDSKNSLYLQMNSLKTEDTAVYYCRYVHYGAYYGVDAWGEGTTVTVSSASTKGPSVFPLAPSSKSTSGGTAALGCLVKDYFPEPVTVSWNSGALTSGVHTFPAVLQSSGLYSLSSVVTVPSSSLGTQTYICNVNHKPSNTKVDKKVEPKSCDKTHTCPPCPAPEAAGGPSVFLFPPKPKDTLMISRTPEVTCVVVDVSHEDPEVKFNWYVDGVEVHNAKTKPREEQYASTYRVVSVLTVLHQDWLNGKEYKCKVSNKALPAPIEKTISKAKGQPREPQVYTLPPSRCELTKNQVSLSCAVKGFYPSDIAVEWESNGQPENNYKTTPPVLDSDGSFFLVSKLTVDKSRWQQGNVFSCSVMHEALHNHYTQKSLSLSPDYKDDDDK
chain: EPKSSDKTHTCPPCPAPELLGGPSVFLFPPKPKDTLMISRTPEVTCVVVDVSHEDPEVKFNWYVDGVEVHNAKTKPREEQYNSTYRVVSVLTVLHQDWLNGKEYKCKVSNKALPAPIEKTISKAKGQPREPQVCTLPPSRDELTKNQVSLWCLVKGFYPSDIAVEWESNGQPENNYKTTPPVLDSDGSFFLYSKLTVDKSRWQQGNVFSCSVMHEALHNRYTQKSLSLSP
light: DIVMTQSPLSLPVTPGEPASISCRSSQSLVHSNRNTYLHWYQQKPGQAPRLLIYKVSNRFSGVPDRFSGSGSGTDFTLKISRVEAEDVGVYYCGQGTQVPYTFGQGTKLEIKRTVAAPSVFIFPPSDEQLKSGTASVVCLLNNFYPREAKVQWKVDNALQSGNSQESVTEQDSKDSTYSLSSTLTLSKADYEKHKVYACEVTHQGLSSPVTKSFNRGEC
notes: one-arm antibody
B2: CE115HA000 S62P one-arm antibody (antibody, human IgG1, kappa, L234A L235A, N297A, name in Kabat numbering)
heavy: QVQLVESGGGVVQPGRSLRLSCAASGFTFSNAWMHWVRQAPGKGLEWVAQIKAKSNNYATYYAEPVKGRFTISRDDSKNSLYLQMNSLKTEDTAVYYCRYVHYGAYYGVDAWGQGTTVTVSSASTKGPSVFPLAPSSKSTSGGTAALGCLVKDYFPEPVTVSWNSGALTSGVHTFPAVLQSSGLYSLSSVVTVPSSSLGTQTYICNVNHKPSNTKVDKKVEPKSCDKTHTCPPCPAPEAAGGPSVFLFPPKPKDTLMISRTPEVTCVVVDVSHEDPEVKFNWYVDGVEVHNAKTKPREEQYASTYRVVSVLTVLHQDWLNGKEYKCKVSNKALPAPIEKTISKAKGQPREPQVYTLPPSRCELTKNQVSLSCAVKGFYPSDIAVEWESNGQPENNYKTTPPVLDSDGSFFLVSKLTVDKSRWQQGNVFSCSVMHEALHNHYTQKSLSLSPDYKDDDDK
chain: EPKSSDKTHTCPPCPAPELLGGPSVFLFPPKPKDTLMISRTPEVTCVVVDVSHEDPEVKFNWYVDGVEVHNAKTKPREEQYNSTYRVVSVLTVLHQDWLNGKEYKCKVSNKALPAPIEKTISKAKGQPREPQVCTLPPSRDELTKNQVSLWCLVKGFYPSDIAVEWESNGQPENNYKTTPPVLDSDGSFFLYSKLTVDKSRWQQGNVFSCSVMHEALHNRYTQKSLSLSP
light: DIVMTQSPLSLPVTPGEPASISCRSSQSLVHSNRNTYLHWYQQKPGQAPRLLIYKVSNRFSGVPDRFSGSGSGTDFTLKISRVEAEDVGVYYCGQGTQVPYTFGQGTKLEIKRTVAAPSVFIFPPSDEQLKSGTASVVCLLNNFYPREAKVQWKVDNALQSGNSQESVTEQDSKDSTYSLSSTLTLSKADYEKHKVYACEVTHQGLSSPVTKSFNRGEC
notes: one-arm antibody
B3: CE115HA000 S74A one-arm antibody (antibody, human IgG1, kappa, L234A L235A, N297A, name in Kabat numbering)
heavy: QVQLVESGGGVVQPGRSLRLSCAASGFTFSNAWMHWVRQAPGKGLEWVAQIKAKSNNYATYYAESVKGRFTISRDDAKNSLYLQMNSLKTEDTAVYYCRYVHYGAYYGVDAWGQGTTVTVSSASTKGPSVFPLAPSSKSTSGGTAALGCLVKDYFPEPVTVSWNSGALTSGVHTFPAVLQSSGLYSLSSVVTVPSSSLGTQTYICNVNHKPSNTKVDKKVEPKSCDKTHTCPPCPAPEAAGGPSVFLFPPKPKDTLMISRTPEVTCVVVDVSHEDPEVKFNWYVDGVEVHNAKTKPREEQYASTYRVVSVLTVLHQDWLNGKEYKCKVSNKALPAPIEKTISKAKGQPREPQVYTLPPSRCELTKNQVSLSCAVKGFYPSDIAVEWESNGQPENNYKTTPPVLDSDGSFFLVSKLTVDKSRWQQGNVFSCSVMHEALHNHYTQKSLSLSPDYKDDDDK
chain: EPKSSDKTHTCPPCPAPELLGGPSVFLFPPKPKDTLMISRTPEVTCVVVDVSHEDPEVKFNWYVDGVEVHNAKTKPREEQYNSTYRVVSVLTVLHQDWLNGKEYKCKVSNKALPAPIEKTISKAKGQPREPQVCTLPPSRDELTKNQVSLWCLVKGFYPSDIAVEWESNGQPENNYKTTPPVLDSDGSFFLYSKLTVDKSRWQQGNVFSCSVMHEALHNRYTQKSLSLSP
light: DIVMTQSPLSLPVTPGEPASISCRSSQSLVHSNRNTYLHWYQQKPGQAPRLLIYKVSNRFSGVPDRFSGSGSGTDFTLKISRVEAEDVGVYYCGQGTQVPYTFGQGTKLEIKRTVAAPSVFIFPPSDEQLKSGTASVVCLLNNFYPREAKVQWKVDNALQSGNSQESVTEQDSKDSTYSLSSTLTLSKADYEKHKVYACEVTHQGLSSPVTKSFNRGEC
notes: one-arm antibody
B4: CE115HA000 S62K one-arm antibody (antibody, human IgG1, kappa, L234A L235A, N297A, name in Kabat numbering)
heavy: QVQLVESGGGVVQPGRSLRLSCAASGFTFSNAWMHWVRQAPGKGLEWVAQIKAKSNNYATYYAEKVKGRFTISRDDSKNSLYLQMNSLKTEDTAVYYCRYVHYGAYYGVDAWGQGTTVTVSSASTKGPSVFPLAPSSKSTSGGTAALGCLVKDYFPEPVTVSWNSGALTSGVHTFPAVLQSSGLYSLSSVVTVPSSSLGTQTYICNVNHKPSNTKVDKKVEPKSCDKTHTCPPCPAPEAAGGPSVFLFPPKPKDTLMISRTPEVTCVVVDVSHEDPEVKFNWYVDGVEVHNAKTKPREEQYASTYRVVSVLTVLHQDWLNGKEYKCKVSNKALPAPIEKTISKAKGQPREPQVYTLPPSRCELTKNQVSLSCAVKGFYPSDIAVEWESNGQPENNYKTTPPVLDSDGSFFLVSKLTVDKSRWQQGNVFSCSVMHEALHNHYTQKSLSLSPDYKDDDDK
chain: EPKSSDKTHTCPPCPAPELLGGPSVFLFPPKPKDTLMISRTPEVTCVVVDVSHEDPEVKFNWYVDGVEVHNAKTKPREEQYNSTYRVVSVLTVLHQDWLNGKEYKCKVSNKALPAPIEKTISKAKGQPREPQVCTLPPSRDELTKNQVSLWCLVKGFYPSDIAVEWESNGQPENNYKTTPPVLDSDGSFFLYSKLTVDKSRWQQGNVFSCSVMHEALHNRYTQKSLSLSP
light: DIVMTQSPLSLPVTPGEPASISCRSSQSLVHSNRNTYLHWYQQKPGQAPRLLIYKVSNRFSGVPDRFSGSGSGTDFTLKISRVEAEDVGVYYCGQGTQVPYTFGQGTKLEIKRTVAAPSVFIFPPSDEQLKSGTASVVCLLNNFYPREAKVQWKVDNALQSGNSQESVTEQDSKDSTYSLSSTLTLSKADYEKHKVYACEVTHQGLSSPVTKSFNRGEC
notes: one-arm antibody
B5: CE115HA000 S62D one-arm antibody (antibody, human IgG1, kappa, L234A L235A, N297A, name in Kabat numbering)
heavy: QVQLVESGGGVVQPGRSLRLSCAASGFTFSNAWMHWVRQAPGKGLEWVAQIKAKSNNYATYYAEDVKGRFTISRDDSKNSLYLQMNSLKTEDTAVYYCRYVHYGAYYGVDAWGQGTTVTVSSASTKGPSVFPLAPSSKSTSGGTAALGCLVKDYFPEPVTVSWNSGALTSGVHTFPAVLQSSGLYSLSSVVTVPSSSLGTQTYICNVNHKPSNTKVDKKVEPKSCDKTHTCPPCPAPEAAGGPSVFLFPPKPKDTLMISRTPEVTCVVVDVSHEDPEVKFNWYVDGVEVHNAKTKPREEQYASTYRVVSVLTVLHQDWLNGKEYKCKVSNKALPAPIEKTISKAKGQPREPQVYTLPPSRCELTKNQVSLSCAVKGFYPSDIAVEWESNGQPENNYKTTPPVLDSDGSFFLVSKLTVDKSRWQQGNVFSCSVMHEALHNHYTQKSLSLSPDYKDDDDK
chain: EPKSSDKTHTCPPCPAPELLGGPSVFLFPPKPKDTLMISRTPEVTCVVVDVSHEDPEVKFNWYVDGVEVHNAKTKPREEQYNSTYRVVSVLTVLHQDWLNGKEYKCKVSNKALPAPIEKTISKAKGQPREPQVCTLPPSRDELTKNQVSLWCLVKGFYPSDIAVEWESNGQPENNYKTTPPVLDSDGSFFLYSKLTVDKSRWQQGNVFSCSVMHEALHNRYTQKSLSLSP
light: DIVMTQSPLSLPVTPGEPASISCRSSQSLVHSNRNTYLHWYQQKPGQAPRLLIYKVSNRFSGVPDRFSGSGSGTDFTLKISRVEAEDVGVYYCGQGTQVPYTFGQGTKLEIKRTVAAPSVFIFPPSDEQLKSGTASVVCLLNNFYPREAKVQWKVDNALQSGNSQESVTEQDSKDSTYSLSSTLTLSKADYEKHKVYACEVTHQGLSSPVTKSFNRGEC
notes: one-arm antibody
B6: CE115HA000 S62E one-arm antibody (antibody, human IgG1, kappa, L234A L235A, N297A, name in Kabat numbering)
heavy: QVQLVESGGGVVQPGRSLRLSCAASGFTFSNAWMHWVRQAPGKGLEWVAQIKAKSNNYATYYAEEVKGRFTISRDDSKNSLYLQMNSLKTEDTAVYYCRYVHYGAYYGVDAWGQGTTVTVSSASTKGPSVFPLAPSSKSTSGGTAALGCLVKDYFPEPVTVSWNSGALTSGVHTFPAVLQSSGLYSLSSVVTVPSSSLGTQTYICNVNHKPSNTKVDKKVEPKSCDKTHTCPPCPAPEAAGGPSVFLFPPKPKDTLMISRTPEVTCVVVDVSHEDPEVKFNWYVDGVEVHNAKTKPREEQYASTYRVVSVLTVLHQDWLNGKEYKCKVSNKALPAPIEKTISKAKGQPREPQVYTLPPSRCELTKNQVSLSCAVKGFYPSDIAVEWESNGQPENNYKTTPPVLDSDGSFFLVSKLTVDKSRWQQGNVFSCSVMHEALHNHYTQKSLSLSPDYKDDDDK
chain: EPKSSDKTHTCPPCPAPELLGGPSVFLFPPKPKDTLMISRTPEVTCVVVDVSHEDPEVKFNWYVDGVEVHNAKTKPREEQYNSTYRVVSVLTVLHQDWLNGKEYKCKVSNKALPAPIEKTISKAKGQPREPQVCTLPPSRDELTKNQVSLWCLVKGFYPSDIAVEWESNGQPENNYKTTPPVLDSDGSFFLYSKLTVDKSRWQQGNVFSCSVMHEALHNRYTQKSLSLSP
light: DIVMTQSPLSLPVTPGEPASISCRSSQSLVHSNRNTYLHWYQQKPGQAPRLLIYKVSNRFSGVPDRFSGSGSGTDFTLKISRVEAEDVGVYYCGQGTQVPYTFGQGTKLEIKRTVAAPSVFIFPPSDEQLKSGTASVVCLLNNFYPREAKVQWKVDNALQSGNSQESVTEQDSKDSTYSLSSTLTLSKADYEKHKVYACEVTHQGLSSPVTKSFNRGEC
notes: one-arm antibody

Each binder was assayed against T1, CD3 epsilon homodimer protein (UniProt P07766 23-126) (assay: SPR (Biacore T200), CD3 epsilon homodimer on CM4 chip, one-arm antibody as analyte; ratio to unaltered CE115HA000;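 also: surface plasmon resonance run at 25 °C with HBS-EP+ as running buffer, CD3 epsilon homodimer attached by amine coupling, antibody passed over as analyte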).
T1 construct: Construct of the homodimer protein is not described; also called CD3 (CD3 epsilon)
T1 sequence (P07766 23-126): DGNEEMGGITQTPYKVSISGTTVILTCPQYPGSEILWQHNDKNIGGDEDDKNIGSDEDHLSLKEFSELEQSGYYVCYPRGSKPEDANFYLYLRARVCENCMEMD
In the case of B1, the “KD ratio (KD value of CE115HA000/KD value of the altered form)” value (“KD ratio” below) is reported as 0.89.
In the case of B2, the “KD ratio” value is reported as 0.77.
With B3 the “KD ratio” value was 0.77.
For B4, the “KD ratio” value was 0.99.
In the case of B5, the “KD ratio” value is reported as 0.87.
B6 was tested, and the “KD ratio” value was 0.82.
